Values quoted from earlier work in publication PMC5167704.

Target: C4BP SCR6-8 (Homo sapiens) (UniProt P04003)
Sequence of UniProt P04003 (P04003 363-540): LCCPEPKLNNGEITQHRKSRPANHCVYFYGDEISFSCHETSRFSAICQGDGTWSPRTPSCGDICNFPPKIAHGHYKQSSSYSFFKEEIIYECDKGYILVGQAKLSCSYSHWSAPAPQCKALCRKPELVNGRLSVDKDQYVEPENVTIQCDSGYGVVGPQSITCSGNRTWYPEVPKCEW

Substance: Ail (from UniProt Q56957)
- Kd: 760 pM
